This is an account of results in the supplement of paper PMC11246515.

The nature of the data set: total protein half-life in vivo (active degradation + dilution); higher = more stable protein.
Setting [1] is: E. coli NCM3722 delta-clpP delta-lon delta-hslV, growth: N-lim chemostat, doubling time 6 h.
Where [2] appears, read: E. coli NCM3722 delta-lon, growth: N-lim chemostat, doubling time 6 h.
The mark [3] stands for this setting: E. coli NCM3722 delta-smpB, growth: N-lim chemostat, doubling time 6 h.
The mark [4] stands for this setting: wild type E. coli NCM3722, growth: C-lim chemostat, doubling time 3 h.
Setting [5] is: wild type E. coli NCM3722, growth: C-lim chemostat, doubling time 6 h.
The mark [6] stands for this setting: wild type E. coli NCM3722, growth: C-lim chemostat, doubling time 12 h.
[7] abbreviates: wild type E. coli NCM3722, growth: P-lim chemostat, doubling time 6 h.
Where [8] appears, read: wild type E. coli NCM3722, growth: P-lim chemostat, doubling time 12 h.
[9] abbreviates: E. coli NCM3722 delta-clpP, growth: N-lim chemostat, doubling time 6 h.
Setting [10] is: E. coli NCM3722 delta-hslV, growth: N-lim chemostat, doubling time 6 h.
Setting [11] is: wild type E. coli NCM3722, growth: N-lim chemostat, doubling time 6 h.
Where [12] appears, read: wild type E. coli NCM3722, growth: N-lim chemostat, doubling time 12 h.

± gives the standard deviation of the averaged measurements.

As for “MKRPNFLFVMTDTQATNMVGCYSGKPLNTQNIDSLAAEGIRFNSAYTCSPVCTPARAGLFTGIYANQSGPWTNNVAPGKNISTMGRYFKDAGYHTCYIGKWHLDGHDYFGTGECPPEWDADYWFDGANYLSELTEKEISLWRNGLNSVEDLQANHIDETFTWAHRISNRAVDFLQQPARADEPFLMVVSYDEPHHPFTCPVEYLEKYADFYYELGEKAQDDLANKPEHHRLWAQAMPSPVGDDGLYHHPLYFACNDFVDDQIGRVINALTPEQRENTWVIYTSDHGEMMGAHKLISKGAAMYDDITRIPLIIRSPQGERRQVDTPVSHIDLLPTMMALADIEKPEILPGENILAVKEPRGVMVEFNRYEIEHDSFGGFIPVRCWVTDDFKLVLNLFTSDELYDRRNDPNEMHNLIDDIRFADVRSKMHDALLDYMDKIRDPFRSYQWSLRPWRKDARPRWMGAFRPRPQDGYSPVVRDYDTGLPTQGVKVEEKKQKF”, the “total protein half-life in vivo” value reads like this: under setting [1], 5.62 h; under setting [2], 3.1 h; under setting [3], 2 h; under setting [4], 2.28 h; under setting [5], 4.35 ± 0.17 h; under setting [6], 7.04 ± 0.66 h. The “total protein half-life in vivo” value under setting [7] came to 4.04 h and the “total protein half-life in vivo” value under setting [8] stood at 8.72 ± 5.3 h.

Consider “MYEFDWSSIVPSLPYLLDGLVITLKITVTAVVIGILWGTMLAVMRLSSFAPVAWFAKAYVNVFRSIPLVMVLLWFYLIVPGFLQNVLGLSPKNDIRLISAMVAFSMFEAAYYSEIIRAGIQSISRGQSSAALALGMTHWQSMKLIILPQAFRAMVPLLLTQGIVLFQDTSLVYVLSLADFFRTASTIGERDGTQVEMILFAGFVYFVISLSASLLVSYLKRRTA [P0AER5]”, for which the “total protein half-life in vivo” value worked out at 7.04 h under setting [1]; 5.18 h under setting [9]; 6.35 h under setting [10]; 5.47 h under setting [2]; 5.15 ± 0.1 h under setting [3]; 6.05 ± 0.51 h under setting [5]. Further, the “total protein half-life in vivo” value by setting is: under setting [6], 12.6 ± 1.8 h; under setting [11], 5.68 ± 0.1 h; under setting [12], 9.5 ± 4.4 h; under setting [7], 6.36 ± 0.33 h; under setting [8], 11.4 ± 0.52 h.

“MNNNTTAPTYTLRGLQLIGWRDMQHALDYLFADGQLKQGTLVAINAEKMLTIEDNAEVRELINAAEFKYADGISVVRSVRKKYPQAQVSRVAGADLWEELMARAGKEGTPVFLVGGKPEVLAQTEAKLRNQWNVNIVGSQDGYFKPEQRQALFERIHASGAQIVTVAMGSPKQEIIMRDCRLVHPDALYMGVGGTYDVFTGHVKRAPKIWQTLGLEWLYRLLSQPSRIKRQLRLLRYLRWHYTGNL”: the “total protein half-life in vivo” value under setting [1] was found to be 6.19 ± 0.52 h; the “total protein half-life in vivo” value under setting [9] turned out to be 6.04 ± 0.25 h; the “total protein half-life in vivo” value under setting [10] is 6.18 ± 0.083 h; the “total protein half-life in vivo” value under setting [2] came out at 7.03 ± 0.76 h; the “total protein half-life in vivo” value under setting [3] stood at 6.88 ± 0.092 h; the “total protein half-life in vivo” value under setting [4] stood at 3.045 ± 0.02 h. In addition, the “total protein half-life in vivo” value under setting [5] was found to be 5.84 ± 0.15 h; the “total protein half-life in vivo” value under setting [6] is 12.2 ± 1.7 h; the “total protein half-life in vivo” value under setting [11] was found to be 6.58 ± 0.62 h; the “total protein half-life in vivo” value under setting [12] stood at 12.6 ± 0.13 h; the “total protein half-life in vivo” value under setting [7] stood at 5.76 ± 0.52 h; the “total protein half-life in vivo” value under setting [8] is 13.4 ± 1.2 h.

Turning to “MNDTSFENCIKCTVCTTACPVSRVNPGYPGPKQAGPDGERLRLKDGALYDEALKYCINCKRCEVACPSDVKIGDIIQRARAKYDTTRPSLRNFVLSHTDLMGSVSTPFAPIVNTATSLKPVRQLLDAALKIDHRRTLPKYSFGTFRRWYRSVAAQQAQYKDQVAFFHGCFVNYNHPQLGKDLIKVLNAMGTGVQLLSKEKCCGVPLIANGFTDKARKQAITNVESIREAVGVKGIPVIATSSTCTFALRDEYPEVLNVDNKGLRDHIELATRWLWRKLDEGKTLPLKPLPLKVVYHTPCHMEKMGWTLYTLELLRNIPGLELTVLDSQCCGIAGTYGFKKENYPTSQAIGAPLFRQIEESGADLVVTDCETCKWQIEMSTSLRCEHPITLLAQALA [P0A996]”, the “total protein half-life in vivo” value under setting [1] was determined as 6.38 h.

In the case of “MSDNDELQQIAHLRREYTKGGLRRRDLPADPLTLFERWLSQACEAKLADPTAMVVATVDEHGQPYQRIVLLKHYDEKGMVFYTNLGSRKAHQIENNPRVSLLFPWHTLERQVMVIGKAERLSTLEVMKYFHSRPRDSQIGAWVSKQSSRISARGILESKFLELKQKFQQGEVPLPSFWGGFRVSLEQIEFWQGGEHRLHDRFLYQRENDAWKIDRLAP [P0AFI7]”, the “total protein half-life in vivo” value was determined as 4.89 ± 0.34 h under setting [1]; 4.63 ± 0.17 h under setting [9]; 4.2 ± 0.047 h under setting [10]; 4.66 ± 0.076 h under setting [2]; 4.39 ± 0.58 h under setting [3]; 3.53 ± 0.6 h under setting [4]. For the same sequence, the “total protein half-life in vivo” value reads like this: under setting [5], 5.55 ± 0.32 h; under setting [6], 10.8 ± 1.7 h; under setting [11], 4.14 ± 0.077 h; under setting [12], 8.66 ± 0.44 h; under setting [7], 5.65 ± 0.12 h; under setting [8], 11.2 ± 0.29 h.

For the sequence “MRKILITGGAGFIGSALVRYIINETSDAVVVVDKLTYAGNLMSLAPVAQSERFAFEKVDICDRAELARVFTEHQPDCVMHLAAESHVDRSIDGPAAFIETNIVGTYTLLEAARAYWNALTEDKKSAFRFHHISTDEVYGDLHSTDDFFTETTPYAPSSPYSASKASSDHLVRAWLRTYGLPTLITNCSNNYGPYHFPEKLIPLMILNALAGKSLPVYGNGQQIRDWLYVEDHARALYCVATTGKVGETYNIGGHNERKNLDVVETICELLEELAPNKPHGVAHYRDLITFVADRPGHDLRYAIDASKIARELGWLPQETFESGMRKTVQWYLANESWWKQVQDGSYQGERLGLKG”, the “total protein half-life in vivo” value stood at 5.27 ± 0.23 h under setting [1]; 5.27 ± 0.67 h under setting [9]; 5.1 ± 0.12 h under setting [10]; 5.96 ± 0.64 h under setting [2]; 4.74 ± 0.24 h under setting [3]; 6.39 ± 0.12 h under setting [5]. The “total protein half-life in vivo” value under setting [6] worked out at 11.7 ± 1.8 h; the “total protein half-life in vivo” value under setting [11] is 4.95 ± 0.23 h; the “total protein half-life in vivo” value under setting [12] worked out at 10.7 ± 2.9 h; the “total protein half-life in vivo” value under setting [7] came to 6.4 ± 0.31 h; the “total protein half-life in vivo” value under setting [8] came to 12.61 ± 0.0068 h.

For the sequence “MAEHRGGSGNFAEDREKASDAGRKGGQHSGGNFKNDPQRASEAGKKGGQQSGGNKSGKS”, the “total protein half-life in vivo” value is 0.599 h under setting [1], 1.5 h under setting [2], 1.49 h under setting [11] and 1.92 ± 0.038 h under setting [12].

Take “MKKFALLAGLFVFAPMTWAQDYNIKNGLPSETYITCAEANEMAKTDSAQVAEIVAVMGNASVASRDLKIEQSPELSAKVVEKLNQVCAKDPQMLLITAIDDTMRAIGKK [P0AB46]”: the “total protein half-life in vivo” value by setting is: under setting [1], 3 ± 0.32 h; under setting [9], 4 h; under setting [10], 6.28 h; under setting [3], 4.66 ± 0.55 h; under setting [4], 2.77 h; under setting [5], 4.69 ± 0.2 h. The “total protein half-life in vivo” value came out at 6.77 ± 0.093 h under setting [6]; 4.93 h under setting [11]; 10.1 ± 2.6 h under setting [12]; 4.4 ± 1.1 h under setting [7]; 8.95 ± 0.44 h under setting [8].

Take “MTIKVGINGFGRIGRIVFRAAQKRSDIEIVAINDLLDADYMAYMLKYDSTHGRFDGTVEVKDGHLIVNGKKIRVTAERDPANLKWDEVGVDVVAEATGLFLTDETARKHITAGAKKVVMTGPSKDNTPMFVKGANFDKYAGQDIVSNASCTTNCLAPLAKVINDNFGIIEGLMTTVHATTATQKTVDGPSHKDWRGGRGASQNIIPSSTGAAKAVGKVLPELNGKLTGMAFRVPTPNVSVVDLTVRLEKAATYEQIKAAVKAAAEGEMKGVLGYTEDDVVSTDFNGEVCTSVFDAKAGIALNDNFVKLVSWYDNETGYSNKVLDLIAHISK [P0A9B2]”: the “total protein half-life in vivo” value by setting is: under setting [1], 6.03 ± 0.4 h; under setting [9], 5.43 ± 0.34 h; under setting [10], 5.447 ± 0.054 h; under setting [2], 5.382 ± 0.019 h; under setting [3], 5.22 ± 0.19 h; under setting [4], 3.35 ± 0.1 h. Moreover, the “total protein half-life in vivo” value is, setting by setting: under setting [5], 6.201 ± 0.014 h; under setting [6], 12.1 ± 0.39 h; under setting [11], 5.69 ± 0.16 h; under setting [12], 9.73 ± 0.3 h; under setting [7], 6.302 ± 0.044 h; under setting [8], 12.6 ± 0.74 h.
